Laboratory results reported in patent US20050074401A1.
Each block holds one substance with its values, some of them ahead of it.

Key:
[1] = molecular target: recombinant ED-B domain of fibronectin, conjugated to Sepharose (UniProt P02751); assay: immunoreactivity of the labelled product (percent bound to ED-B Sepharose column, assay as in P-0168)
[2] = molecular target: recombinant ED-B domain of fibronectin, conjugated to Sepharose (UniProt P02751); assay: ED-B Sepharose column on plasma 72 h after i.v. injection of 125I-antibody, normalised to value before injection
[3] = molecular target: recombinant ED-B domain of fibronectin, conjugated to Sepharose (UniProt P02751); assay: ED-B Sepharose column on plasma 6 h after i.v. injection of 125I-antibody, normalised to value before injection
[4] = molecular target: recombinant ED-B domain of fibronectin, conjugated to Sepharose (UniProt P02751); assay: ED-B Sepharose column on plasma 48 h after i.v. injection of 125I-antibody, normalised to value before injection
[5] = molecular target: recombinant ED-B domain of fibronectin, conjugated to Sepharose (UniProt P02751); assay: ED-B Sepharose column on plasma 24 h after i.v. injection of 125I-antibody, normalised to value before injection
[6] = molecular target: recombinant ED-B domain of fibronectin, conjugated to Sepharose (UniProt P02751); assay: ED-B Sepharose column on plasma 144 h after i.v. injection of 125I-antibody, normalised to value before injection
[7] = molecular target: recombinant ED-B domain of fibronectin, conjugated to Sepharose (UniProt P02751); assay: percent of 125I-labelled antibody bound to ED-B Sepharose column, before injection
[8] = molecular target: recombinant ED-B domain of fibronectin, conjugated to Sepharose (UniProt P02751); assay: ED-B Sepharose column on plasma 3 h after i.v. injection of 125I-antibody, normalised to value before injection
[9] = molecular target: recombinant ED-B domain of fibronectin, conjugated to Sepharose (UniProt P02751); assay: immunoreactivity of the labelled product, chloramine-T preparation (percent bound to ED-B Sepharose column, assay as in P-0168)
[10] = molecular target: recombinant ED-B domain of fibronectin, conjugated to Sepharose (UniProt P02751); assay: immunoreactivity of the labelled product, Iodogen preparation (percent bound to ED-B Sepharose column, assay as in P-0168)

Chain of recombinant ED-B domain of fibronectin, conjugated to Sepharose (P02751 1266-1356 limits assumed): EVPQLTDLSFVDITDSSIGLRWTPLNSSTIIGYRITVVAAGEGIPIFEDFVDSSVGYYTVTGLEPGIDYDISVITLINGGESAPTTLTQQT
Chain of radioiodinated (125I) L19-SIP (VH): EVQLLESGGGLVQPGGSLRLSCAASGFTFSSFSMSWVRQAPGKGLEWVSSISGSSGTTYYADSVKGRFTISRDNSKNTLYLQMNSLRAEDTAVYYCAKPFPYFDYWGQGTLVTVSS
Chain of radioiodinated (125I) L19-SIP (VL): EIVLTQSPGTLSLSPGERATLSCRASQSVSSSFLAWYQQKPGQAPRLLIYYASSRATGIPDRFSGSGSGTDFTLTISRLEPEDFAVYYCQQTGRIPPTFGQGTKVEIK
Chain of radioiodinated (125I) L19-IgG1 (VH): as the sequence (VH) above
Chain of radioiodinated (125I) L19-IgG1 (VL): as the sequence (VL) above
Chain of radioiodinated (125I) scFv(L19)2 (VH): as the sequence (VH) above
Chain of radioiodinated (125I) scFv(L19)2 (VL): as the sequence (VL) above
Chain of I-131-L19-SIP (VH): as the sequence (VH) above
Chain of I-131-L19-SIP (VL): as the sequence (VL) above
Chain of Y-88-MX-DTPA-ε-HN(Lys)-L19-SIP (VH): as the sequence (VH) above
Chain of Y-88-MX-DTPA-ε-HN(Lys)-L19-SIP (VL): as the sequence (VL) above
Chain of Lu-177-DOTA-C-Benzyl-p-NCS-ε-HN(Lys)-L19-SIP (VH): as the sequence (VH) above
Chain of Lu-177-DOTA-C-Benzyl-p-NCS-ε-HN(Lys)-L19-SIP (VL): as the sequence (VL) above
Chain of Re-188-L19-SIP (VH): as the sequence (VH) above
Chain of Re-188-L19-SIP (VL): as the sequence (VL) above
Chain of In-111-DOTA-C-Benzyl-p-NCS-ε-HN(Lys)-L19-SIP (VH): as the sequence (VH) above
Chain of In-111-DOTA-C-Benzyl-p-NCS-ε-HN(Lys)-L19-SIP (VL): as the sequence (VL) above
Chain of In-111-MX-DTPA-Maleimide-S(Cys)-L19-SIP-R (R=reduced) (VH): as the sequence (VH) above
Chain of In-111-MX-DTPA-Maleimide-S(Cys)-L19-SIP-R (R=reduced) (VL): as the sequence (VL) above
Chain of In-111-MX-DTPA-ε-HN(Lys)-L19-SIP (VH): as the sequence (VH) above
Chain of In-111-MX-DTPA-ε-HN(Lys)-L19-SIP (VL): as the sequence (VL) above
Chain of Tc-99m-MAG2-ε-HN(Lys)-L19-SIP (VH): as the sequence (VH) above
Chain of Tc-99m-MAG2-ε-HN(Lys)-L19-SIP (VL): as the sequence (VL) above
Chain of I-124-L19-SIP (VH): as the sequence (VH) above
Chain of I-124-L19-SIP (VL): as the sequence (VL) above
Chain of (3-(4-hydroxy-3-[131I]iodo-phenyl)-propionate)-L19-SIP (VH): as the sequence (VH) above
Chain of (3-(4-hydroxy-3-[131I]iodo-phenyl)-propionate)-L19-SIP (VL): as the sequence (VL) above
Chain of I-123-L19-SIP (VH): as the sequence (VH) above
Chain of I-123-L19-SIP (VL): as the sequence (VL) above
Chain of Tc-99m-L19-SIP (VH): as the sequence (VH) above
Chain of Tc-99m-L19-SIP (VL): as the sequence (VL) above

Immunoreactivity [1]: 73.4%
Substance: Lu-177-DOTA-C-Benzyl-p-NCS-ε-HN(Lys)-L19-SIP (from UniProt P01854 319-426) (antibody)

Immunoreactivity [1]: 88.5%
Substance: In-111-MX-DTPA-Maleimide-S(Cys)-L19-SIP-R (R=reduced) (from UniProt P01854 319-426) (antibody)

Immunoreactivity [1]: 69%
Substance: (3-(4-hydroxy-3-[131I]iodo-phenyl)-propionate)-L19-SIP (from UniProt P01854 319-426) (antibody)

Immunoreactivity (I), % of the value before i.v. injection [2]: 9%
Immunoreactivity (I), % of the value before i.v. injection [3]: 32%
Immunoreactivity (I), % of the value before i.v. injection [4]: 14%
Immunoreactivity (I), % of the value before i.v. injection [5]: 27%
Immunoreactivity (I), % of the value before i.v. injection [6]: 4%
Immunoreactivity [7]: > 90%
Immunoreactivity (I), % of the value before i.v. injection [8]: 36%
Substance: radioiodinated (125I) scFv(L19)2

Immunoreactivity [1]: 81.1%
Substance: Tc-99m-MAG2-ε-HN(Lys)-L19-SIP (from UniProt P01854 319-426) (antibody)

Immunoreactivity [1]: 70.5%
Substance: Y-88-MX-DTPA-ε-HN(Lys)-L19-SIP (from UniProt P01854 319-426) (antibody)

Immunoreactivity [9]: 76%
Immunoreactivity [10]: 78%
Substance: I-131-L19-SIP (from UniProt P01854 319-426) (antibody)

More lines, now with the values behind:

Substance: In-111-DOTA-C-Benzyl-p-NCS-ε-HN(Lys)-L19-SIP (from UniProt P01854 319-426) (antibody)
Immunoreactivity [1]: 75.1%

Substance: I-124-L19-SIP (from UniProt P01854 319-426) (antibody)
Immunoreactivity [1]: 86%

Substance: radioiodinated (125I) L19-SIP (from UniProt P01854 319-426) (antibody)
Immunoreactivity (I), % of the value before i.v. injection [2]: 100%
Immunoreactivity (I), % of the value before i.v. injection [3]: 100%
Immunoreactivity (I), % of the value before i.v. injection [4]: 95%
Immunoreactivity (I), % of the value before i.v. injection [5]: 100%
Immunoreactivity (I), % of the value before i.v. injection [6]: 95%
Immunoreactivity [7]: > 90%
Immunoreactivity (I), % of the value before i.v. injection [8]: 100%

Substance: I-123-L19-SIP (from UniProt P01854 319-426) (antibody)
Immunoreactivity [1]: 84%

Substance: Re-188-L19-SIP (from UniProt P01854 319-426) (antibody)
Immunoreactivity [1]: 91.7%

Substance: In-111-MX-DTPA-ε-HN(Lys)-L19-SIP (from UniProt P01854 319-426) (antibody)
Immunoreactivity [1]: 77.5%

Substance: radioiodinated (125I) L19-IgG1 (from UniProt P01857 1-330) (antibody)
Immunoreactivity (I), % of the value before i.v. injection [2]: 100%
Immunoreactivity (I), % of the value before i.v. injection [3]: 100%
Immunoreactivity (I), % of the value before i.v. injection [4]: 100%
Immunoreactivity (I), % of the value before i.v. injection [5]: 95%
Immunoreactivity (I), % of the value before i.v. injection [6]: 95%
Immunoreactivity [7]: > 90%
Immunoreactivity (I), % of the value before i.v. injection [8]: 100%

Substance: Tc-99m-L19-SIP (from UniProt P01854 319-426) (antibody)
Immunoreactivity [1]: 91.4%
